Results published in FireProtDB (doi:10.1111/j.1432-1033.1991.tb16033.x).

B1: Ribonuclease HI, P0A7Y4 (parent)
chain: MLKQVEIFTDGSCLGNPGPGGYGAILRYRGREKTFSAGYTRTTNNRMELMAAIVALEALKEHCEVILSTDSQYVRQGITQWIHNWKKRGWKTADKKPVKNVDLWQRLDAALGQHQIKWEWVKGHAGHPENERCDELARAAAMNPTLEDTGYQVEV

Variants of: B1
Details: Escherichia coli (strain K12); pH 5.5; 25 °C; GdnHCl; Fluorescence; Sodium acetate 20 mM; NaCl 0.1 M; reversible: yes; structure 2RN2; whole UniProt chain shown

Row | Variant | ddG of mutation (higher = less stable) [kcal/mol] | denaturant m value [kcal/mol/M] | denaturant midpoint (higher = more stable) [M] | unfolding free energy [kcal/mol]
1 | H114A | 2.63 | 4.23 | 1.57 | 6.63
2 | H62A | -0.38 | 5.19 | 1.86 | 9.64
3 | H127A | 0.58 | 4.98 | 1.74 | 8.68
4 | H124A | -0.48 | 5.36 | 1.82 | 9.74
